# In patent publication US20260167699A1 (Chugai, published 2026):
# B1: GpH7-A5/GpH7-B3 variant L235_02A/GpL16-k0 (antibody, human IgG1, kappa)
# heavy 1: not shown
# heavy 2: not shown
# light: DIVMTQSPLSLPVTPGEPASISCQASESLVHSNRNTYLHWYLQKPGQSPQLLIYKVSNRFSGVPDRFSGSGSGTDFTLKISRVEAEDVGVYYCSQNTHVPPTFGQGTKVEIERTVAAPSVFIFPPSDEQLKSGTASVVCLLNNFYPREAKVQWKVDNALQSGNSQESVTEQDSKDSTYSLSSTLTLSKADYEKHKVYACEVTHQGLSSPVTKSFNRGEC
# notes: copies: 1 + 1 + 2
# B2: GpH7-A5/GpH7-B3 variant L328_02A/GpL16-k0 (antibody, human IgG1, kappa)
# heavy 1: not shown
# heavy 2: not shown
# light: B1 light
# notes: copies: 1 + 1 + 2
# B3: GpH7-A5/GpH7-B3 variant P238_09D/GpL16-k0 (antibody, human IgG1, kappa)
# heavy 1: not shown
# heavy 2: not shown
# light: B1 light
# notes: copies: 1 + 1 + 2
# B4: GpH7-A5/GpH7-B3 variant P329_02A/GpL16-k0 (antibody, human IgG1, kappa)
# heavy 1: not shown
# heavy 2: not shown
# light: B1 light
# notes: copies: 1 + 1 + 2
# B5: GpH7-A5/GpH7-B3 variant P271_08L/GpL16-k0 (antibody, human IgG1, kappa)
# heavy 1: not shown
# heavy 2: not shown
# light: B1 light
# notes: copies: 1 + 1 + 2
# B6: GpH7-A5/GpH7-B3 variant P271_10E/GpL16-k0 (antibody, human IgG1, kappa)
# heavy 1: not shown
# heavy 2: not shown
# light: B1 light
# notes: copies: 1 + 1 + 2
# B7: GpH7-A5/GpH7-B3 variant L235_16H/GpL16-k0 (antibody, human IgG1, kappa)
# heavy 1: not shown
# heavy 2: not shown
# light: B1 light
# notes: copies: 1 + 1 + 2
# B8: GpH7-A5/GpH7-B3 variant L235_09D/GpL16-k0 (antibody, human IgG1, kappa)
# heavy 1: not shown
# heavy 2: not shown
# light: B1 light
# notes: copies: 1 + 1 + 2
# B9: GpH7-A5/GpH7-B3 variant L235_10E/GpL16-k0 (antibody, human IgG1, kappa)
# heavy 1: not shown
# heavy 2: not shown
# light: B1 light
# notes: copies: 1 + 1 + 2
# B10: GpH7-A5/GpH7-B3 variant P271_18N/GpL16-k0 (antibody, human IgG1, kappa)
# heavy 1: not shown
# heavy 2: not shown
# light: B1 light
# notes: copies: 1 + 1 + 2
# B11: GpH7-A5/GpH7-B3 variant P271_15Y/GpL16-k0 (antibody, human IgG1, kappa)
# heavy 1: not shown
# heavy 2: not shown
# light: B1 light
# notes: copies: 1 + 1 + 2
# B12: GpH7-A5/GpH7-B3 variant P271_02A/GpL16-k0 (antibody, human IgG1, kappa)
# heavy 1: not shown
# heavy 2: not shown
# light: B1 light
# notes: copies: 1 + 1 + 2
# B13: GpH7-A5/GpH7-B3 variant L328_03V/GpL16-k0 (antibody, human IgG1, kappa)
# heavy 1: not shown
# heavy 2: not shown
# light: B1 light
# notes: copies: 1 + 1 + 2
# B14: GpH7-A5/GpH7-B3 variant P329_09D/GpL16-k0 (antibody, human IgG1, kappa)
# heavy 1: not shown
# heavy 2: not shown
# light: B1 light
# notes: copies: 1 + 1 + 2
# B15: GpH7-A5/GpH7-B3 variant L328_07I/GpL16-k0 (antibody, human IgG1, kappa)
# heavy 1: not shown
# heavy 2: not shown
# light: B1 light
# notes: copies: 1 + 1 + 2
# B16: GpH7-A5/GpH7-B3 variant P238_15Y/GpL16-k0 (antibody, human IgG1, kappa)
# heavy 1: not shown
# heavy 2: not shown
# light: B1 light
# notes: copies: 1 + 1 + 2
# B17: GpH7-A5/GpH7-B3 variant L235_03V/GpL16-k0 (antibody, human IgG1, kappa)
# heavy 1: not shown
# heavy 2: not shown
# light: B1 light
# notes: copies: 1 + 1 + 2
# B18: GpH7-A5/GpH7-B3 variant P271_04F/GpL16-k0 (antibody, human IgG1, kappa)
# heavy 1: not shown
# heavy 2: not shown
# light: B1 light
# notes: copies: 1 + 1 + 2
# B19: GpH7-A5/GpH7-B3 variant P271_01G/GpL16-k0 (antibody, human IgG1, kappa)
# heavy 1: not shown
# heavy 2: not shown
# light: B1 light
# notes: copies: 1 + 1 + 2
# B20: GpH7-A5/GpH7-B3 variant L328_16H/GpL16-k0 (antibody, human IgG1, kappa)
# heavy 1: not shown
# heavy 2: not shown
# light: B1 light
# notes: copies: 1 + 1 + 2
# B21: GpH7-A5/GpH7-B3 variant L235_18N/GpL16-k0 (antibody, human IgG1, kappa)
# heavy 1: not shown
# heavy 2: not shown
# light: B1 light
# notes: copies: 1 + 1 + 2
# B22: GpH7-A5/GpH7-B3 variant N325_13S/GpL16-k0 (antibody, human IgG1, kappa)
# heavy 1: not shown
# heavy 2: not shown
# light: B1 light
# notes: copies: 1 + 1 + 2
# B23: GpH7-A5/GpH7-B3 variant P238_19Q/GpL16-k0 (antibody, human IgG1, kappa)
# heavy 1: not shown
# heavy 2: not shown
# light: B1 light
# notes: copies: 1 + 1 + 2
# B24: GpH7-A5/GpH7-B3 variant P271_12R/GpL16-k0 (antibody, human IgG1, kappa)
# heavy 1: not shown
# heavy 2: not shown
# light: B1 light
# notes: copies: 1 + 1 + 2
# B25: GpH7-A5/GpH7-B3 variant P271_06M/GpL16-k0 (antibody, human IgG1, kappa)
# heavy 1: not shown
# heavy 2: not shown
# light: B1 light
# notes: copies: 1 + 1 + 2
# B26: GpH7-A5/GpH7-B3 variant P271_13S/GpL16-k0 (antibody, human IgG1, kappa)
# heavy 1: not shown
# heavy 2: not shown
# light: B1 light
# notes: copies: 1 + 1 + 2
# B27: GpH7-A5/GpH7-B3 variant L328_04F/GpL16-k0 (antibody, human IgG1, kappa)
# heavy 1: not shown
# heavy 2: not shown
# light: B1 light
# notes: copies: 1 + 1 + 2
# B28: GpH7-A5/GpH7-B3 variant P331_04F/GpL16-k0 (antibody, human IgG1, kappa)
# heavy 1: not shown
# heavy 2: not shown
# light: B1 light
# notes: copies: 1 + 1 + 2
# B29: GpH7-A5/GpH7-B3 variant L235_07I/GpL16-k0 (antibody, human IgG1, kappa)
# heavy 1: not shown
# heavy 2: not shown
# light: B1 light
# notes: copies: 1 + 1 + 2
# B30: GpH7-A5/GpH7-B3 variant L328_13S/GpL16-k0 (antibody, human IgG1, kappa)
# heavy 1: not shown
# heavy 2: not shown
# light: B1 light
# notes: copies: 1 + 1 + 2
# Biological target: T1, FcγRIIIa (human, UniProt P08637 17-208)
# T1 construct: extracellular domain; also called 3a; FcγRIIIa extracellular domain
# Experiment: SPR (Biacore);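 note: antibody variants captured on an SPR sensor chip, with FcγRIIIa passed over as analyte in HBS-EP+ buffer at 25 °C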
# T1 sequence (P08637 other isoform, or with tags, fused parts or gaps): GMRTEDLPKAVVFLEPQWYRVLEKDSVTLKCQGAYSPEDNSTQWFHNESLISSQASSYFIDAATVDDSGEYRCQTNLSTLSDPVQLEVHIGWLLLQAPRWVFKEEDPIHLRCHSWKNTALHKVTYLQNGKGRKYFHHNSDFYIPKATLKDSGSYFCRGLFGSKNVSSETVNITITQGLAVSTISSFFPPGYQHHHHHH
row,He/Con 3a,Binder
1,72 % of GpH7-A5/GpH7-B3/GpL16-k0,B1
2,81.3 % of GpH7-A5/GpH7-B3/GpL16-k0,B2
3,100 % of GpH7-A5/GpH7-B3/GpL16-k0,B3
4,55.2 % of GpH7-A5/GpH7-B3/GpL16-k0,B4
5,74.5 % of GpH7-A5/GpH7-B3/GpL16-k0,B5
6,98.2 % of GpH7-A5/GpH7-B3/GpL16-k0,B6
7,57.1 % of GpH7-A5/GpH7-B3/GpL16-k0,B7
8,88.5 % of GpH7-A5/GpH7-B3/GpL16-k0,B8
9,85.6 % of GpH7-A5/GpH7-B3/GpL16-k0,B9
10,94 % of GpH7-A5/GpH7-B3/GpL16-k0,B10
11,62.7 % of GpH7-A5/GpH7-B3/GpL16-k0,B11
12,83.7 % of GpH7-A5/GpH7-B3/GpL16-k0,B12
13,80.9 % of GpH7-A5/GpH7-B3/GpL16-k0,B13
14,52.5 % of GpH7-A5/GpH7-B3/GpL16-k0,B14
15,86.4 % of GpH7-A5/GpH7-B3/GpL16-k0,B15
16,61 % of GpH7-A5/GpH7-B3/GpL16-k0,B16
17,94.6 % of GpH7-A5/GpH7-B3/GpL16-k0,B17
18,65.6 % of GpH7-A5/GpH7-B3/GpL16-k0,B18
19,119 % of GpH7-A5/GpH7-B3/GpL16-k0,B19
20,55.9 % of GpH7-A5/GpH7-B3/GpL16-k0,B20
21,65 % of GpH7-A5/GpH7-B3/GpL16-k0,B21
22,71.9 % of GpH7-A5/GpH7-B3/GpL16-k0,B22
23,52.7 % of GpH7-A5/GpH7-B3/GpL16-k0,B23
24,87.6 % of GpH7-A5/GpH7-B3/GpL16-k0,B24
25,74 % of GpH7-A5/GpH7-B3/GpL16-k0,B25
26,79.8 % of GpH7-A5/GpH7-B3/GpL16-k0,B26
27,81.5 % of GpH7-A5/GpH7-B3/GpL16-k0,B27
28,70.7 % of GpH7-A5/GpH7-B3/GpL16-k0,B28
29,92.8 % of GpH7-A5/GpH7-B3/GpL16-k0,B29
30,73.7 % of GpH7-A5/GpH7-B3/GpL16-k0,B30
